In the data set the target is thrombin (Homo sapiens, UniProt P00734;P00734 328-363;364-622). The data set can be described thus: reflectometric interference spectroscopy (RIfS), immobilized aptamer; PBS + MgCl2; sigmoidal fit of dEOT; Binding buffer PBS + MgCl2 (concentration, pH not given); TBA preheated 95 °C 5 min, cooled to room temperature; flow cell, assay temperature not stated.

The Kd is the constant that tells how readily two partners part at equilibrium.

B1: TBA 15-mer (5'-biotin) (structured_DNA)
DNA: GGTTGGTGTGGTTGG
modifications: 5'-biotin
For the molecule B1, the Kd worked out at 900 nM.

Source of the values: paper PMC6833485.
